Test [1] addresses T1, recombinant rat CTGF protein (R&D Systems) (rat, UniProt Q9R1E9 25-347).
T1 construct: Bought; also called rCTGF
T1 sequence: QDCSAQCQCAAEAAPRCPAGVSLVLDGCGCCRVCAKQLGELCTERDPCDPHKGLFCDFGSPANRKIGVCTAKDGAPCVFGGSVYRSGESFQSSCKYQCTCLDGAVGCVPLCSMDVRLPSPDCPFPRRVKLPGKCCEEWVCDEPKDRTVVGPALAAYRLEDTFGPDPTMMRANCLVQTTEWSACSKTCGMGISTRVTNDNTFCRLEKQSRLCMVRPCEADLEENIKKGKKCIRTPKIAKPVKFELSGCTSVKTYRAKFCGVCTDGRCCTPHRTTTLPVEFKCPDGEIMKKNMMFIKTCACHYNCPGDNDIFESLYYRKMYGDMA
The test is described as follows: SPR (Biacore); B = binding without determination of kinetics constants. The protocol:
(§1) The binding of exemplary lipocalin muteins to human (Creative Biomart), cynomolgus, rat (R&D Systems) and mouse CTGF (Abbexa) was determined by SPR using a Biacore instrument (Cytiva, formerly GE Healthcare). Some targets were fused to a human IgG1 Fc tag, and captured via the anti-human IgG antibody kit, others were directly immobilized.
(§2) For some measurements, human CTGF with a human IgG1 Fc Tag or rat or murine CTGF without a tag were directly immobilized to a CM5 Chip. The carboxyl groups on the chip were activated using 1-ethyl-3-(3-dimethylaminopropyl)-carbodiimide (EDC) and N-hydroxysuccinimide (NHS). […] Residual non-reacted NHS-esters were blocked by passing a solution of 1 M ethanolamine across the surface. The reference channel was activated/deactivated. For the capture setting, targets with an IgG Fc Tag at 0.25-2.5 μg/mL in HBS-EP+ buffer were captured by the anti-human IgG-Fc antibody at the chip surface for 180 s at a flow rate of 10 μL/min.
(§3) The binding assay was carried out with a contact time of 180 s, a dissociation time of 900-3600 s and a flow rate of 30 μL/min. All measurements were performed at 25° C. […] For the directly immobilized targets, the same regeneration conditions were used. Prior to the protein measurements, three startup cycles were performed for conditioning purposes.

The target in test [2] is T2, recombinant human CTGF-Fc protein (Creative Biomart) (human).
T2 construct: Bought; also called human CTGF with a human IgG1 Fc Tag
T2 sequence (chain, as listed by the source limits assumed): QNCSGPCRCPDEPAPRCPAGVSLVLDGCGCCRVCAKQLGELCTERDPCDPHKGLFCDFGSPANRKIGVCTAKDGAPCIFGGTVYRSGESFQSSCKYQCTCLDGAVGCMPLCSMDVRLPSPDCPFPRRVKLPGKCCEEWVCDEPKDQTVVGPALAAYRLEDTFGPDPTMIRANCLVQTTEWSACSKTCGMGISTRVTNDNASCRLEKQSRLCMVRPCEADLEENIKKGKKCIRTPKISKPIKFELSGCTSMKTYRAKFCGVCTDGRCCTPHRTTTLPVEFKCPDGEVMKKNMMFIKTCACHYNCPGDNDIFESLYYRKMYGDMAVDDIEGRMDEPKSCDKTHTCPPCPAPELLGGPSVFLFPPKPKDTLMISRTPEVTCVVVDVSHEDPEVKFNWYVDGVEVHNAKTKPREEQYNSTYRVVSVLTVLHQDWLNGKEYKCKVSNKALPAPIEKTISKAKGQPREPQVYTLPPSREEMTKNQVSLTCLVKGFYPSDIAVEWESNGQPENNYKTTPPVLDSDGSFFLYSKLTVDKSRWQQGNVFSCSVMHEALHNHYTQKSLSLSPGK
The test can be described thus: SPR (Biacore). The procedure:
as §1, §2, §3
On the technique in general: In SPR one partner is held on a chip, and binding of the other changes the refractive index at the surface.

Test [3] concerns the target T3, huWISP-1 (human, UniProt O95388 23-367, limits assumed).
T3 construct: also called human WISP-1 (CCN4)
T3 sequence (looked up): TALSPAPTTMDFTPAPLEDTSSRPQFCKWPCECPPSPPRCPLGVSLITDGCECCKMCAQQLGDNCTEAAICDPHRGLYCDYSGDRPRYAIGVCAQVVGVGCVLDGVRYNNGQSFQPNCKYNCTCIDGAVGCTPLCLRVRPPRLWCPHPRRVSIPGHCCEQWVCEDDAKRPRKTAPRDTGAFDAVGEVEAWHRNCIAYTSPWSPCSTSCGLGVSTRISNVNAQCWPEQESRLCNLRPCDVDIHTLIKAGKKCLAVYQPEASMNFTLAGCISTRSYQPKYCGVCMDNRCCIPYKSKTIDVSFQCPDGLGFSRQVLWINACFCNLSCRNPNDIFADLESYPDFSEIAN
The test can be described thus: ELISA, coated CCN protein. The protocol: (§4) Binding of muteins to closely related proteins of CTGF was tested by an ELISA assay. In detail, a 384-well plate suitable for fluorescence measurements (Greiner FLUOTRAC™ 600, black flat bottom, high-binding) was coated with 20 μl of human CTGF or the other members of the CCN protein family at a concentration of 1 μg/ml in PBS over night at 4° C. After washing with PBS with 0.05% Tween 20, wells were blocked with 100 μl blocking buffer containing 0.1% Tween 20 and 2% BSA (PBS-T/BSA) for 1 h at room temperature. 20 μl of serially diluted muteins starting at 1000 nM were incubated in PBS-T/BSA for 1 h at room temperature (RT).
(§5) The residual supernatants were discarded and 20 μl HRP-labeled anti-NGAL or anti-Strep-Tag antibody was added at a predetermined optimal concentration in PBS-T/BSA and incubated for 1 h at RT. After washing, 20 μl fluorogenic HRP substrate (QuantaBlu, Thermo) was added to each well, and the reaction was allowed to proceed for 2 to 60 minutes. The fluorescence intensity of every well on the plate was read using a fluorescence microplate reader (Tecan). When the signal for human CTGF approached saturation, the cross reactivity to the other proteins was assessed.
(In general: An ELISA detects its analyte on a solid surface through an enzyme-linked reagent.)

In test [4] the target is T4, huNOV (human, UniProt P48745 32-357, limits assumed).
T4 construct: also called human NOV (CCN3)
T4 sequence (looked up): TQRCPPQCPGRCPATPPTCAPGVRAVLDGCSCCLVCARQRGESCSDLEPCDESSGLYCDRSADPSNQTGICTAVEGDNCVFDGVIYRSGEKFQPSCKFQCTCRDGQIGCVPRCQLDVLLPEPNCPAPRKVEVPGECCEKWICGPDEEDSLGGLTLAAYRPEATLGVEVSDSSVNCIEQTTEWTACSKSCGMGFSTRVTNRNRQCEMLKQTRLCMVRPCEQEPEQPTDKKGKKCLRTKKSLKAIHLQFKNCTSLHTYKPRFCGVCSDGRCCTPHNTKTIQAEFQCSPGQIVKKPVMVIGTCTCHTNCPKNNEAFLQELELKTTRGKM
The test can be described thus: ELISA, coated CCN protein. The procedure:
as §4, §5

The target of test [5] is T5, huWISP-3 (human, UniProt O95389 24-354, limits assumed).
T5 construct: also called human WISP-3 (CCN6)
T5 sequence (looked up): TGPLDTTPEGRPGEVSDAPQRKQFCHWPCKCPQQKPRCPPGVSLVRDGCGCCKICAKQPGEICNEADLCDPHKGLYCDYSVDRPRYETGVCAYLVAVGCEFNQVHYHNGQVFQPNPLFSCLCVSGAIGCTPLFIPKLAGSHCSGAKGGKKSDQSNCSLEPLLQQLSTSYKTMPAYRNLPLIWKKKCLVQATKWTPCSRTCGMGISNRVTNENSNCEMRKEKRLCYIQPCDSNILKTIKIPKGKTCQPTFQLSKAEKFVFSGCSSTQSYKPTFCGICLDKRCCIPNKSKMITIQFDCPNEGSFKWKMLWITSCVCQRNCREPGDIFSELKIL
The test can be described thus: ELISA, coated CCN protein. The procedure: as §4, §5

Test [6] concerns the target T6, huCYR61 (human, UniProt O00622 25-381, limits assumed).
T6 construct: also called human CYR61 (CCN1)
T6 sequence (looked up): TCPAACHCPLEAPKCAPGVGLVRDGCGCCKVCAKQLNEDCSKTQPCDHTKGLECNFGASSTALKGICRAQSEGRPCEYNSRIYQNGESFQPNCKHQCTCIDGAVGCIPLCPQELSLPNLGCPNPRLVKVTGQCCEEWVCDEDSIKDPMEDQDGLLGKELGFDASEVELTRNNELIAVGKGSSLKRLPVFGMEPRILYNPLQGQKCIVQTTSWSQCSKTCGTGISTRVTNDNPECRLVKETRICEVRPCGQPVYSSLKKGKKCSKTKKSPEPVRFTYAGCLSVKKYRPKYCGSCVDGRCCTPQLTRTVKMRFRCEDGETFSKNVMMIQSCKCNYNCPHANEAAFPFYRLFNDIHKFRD
The test is described as follows: ELISA, coated CCN protein. The procedure:
as §4, §5

Test [7] has as its target T7, huWISP-2 (human, UniProt O76076 24-250, limits assumed).
T7 construct: also called human WISP-2 (CCN5)
T7 sequence (looked up): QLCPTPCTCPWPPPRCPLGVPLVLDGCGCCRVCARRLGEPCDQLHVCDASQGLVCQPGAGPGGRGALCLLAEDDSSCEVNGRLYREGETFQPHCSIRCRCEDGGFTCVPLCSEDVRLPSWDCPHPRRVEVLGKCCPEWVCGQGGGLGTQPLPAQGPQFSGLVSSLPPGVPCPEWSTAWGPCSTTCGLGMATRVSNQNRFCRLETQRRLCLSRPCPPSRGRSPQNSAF
The test can be described thus: ELISA, coated CCN protein. The procedure:
as §4, §5

For test [8], the target named is T8, CTGF expressed by TGF-β1-stimulated normal human lung fibroblasts (NHLFs) (human, UniProt P29279 27-349).
T8 construct: whole, on cells; Cells grown under conditions that facilitate pseudo-3D extracellular matrix deposition; also called CTGF-expressing NHLFs
T8 sequence (looked up): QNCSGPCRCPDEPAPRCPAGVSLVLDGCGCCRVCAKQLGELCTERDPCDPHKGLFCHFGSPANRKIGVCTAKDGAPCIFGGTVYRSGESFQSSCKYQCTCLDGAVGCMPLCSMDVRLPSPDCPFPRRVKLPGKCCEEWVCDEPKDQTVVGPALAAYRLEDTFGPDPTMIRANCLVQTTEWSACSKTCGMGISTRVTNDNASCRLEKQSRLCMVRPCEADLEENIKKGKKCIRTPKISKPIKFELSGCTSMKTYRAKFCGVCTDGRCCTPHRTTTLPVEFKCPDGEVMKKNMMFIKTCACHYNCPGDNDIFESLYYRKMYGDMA
The test can be described thus: immunofluorescence staining of the lipocalin scaffold (AlexaFluor647 secondary antibody) on NHLFs incubated 24 h with the construct and 10 ng/ml TGF-β1; signal normalised to the NGAL control.

B1: lipocalin mutein of SEQ ID NO: 6 (designed binder)
chain: QDSTSDLIPAPPLSKVPLQQNFQDNQFQGKWYVVGRAGNNQLREDKSPPKMWATIYELKEDKSYDVTHVHFSTKKCRYIIDTFVPGSQPGEFTAGAIKSGPGLTSPLVRVVSTNYNQHAMVFFKWVTQNREWFTITLYGRTKELTSELKENFIRFSKSLGLPENHIVFPVPIDQCIDG
notes: also called hNGAL mutein; not shown: C-terminal His-tag
Consider B1, for which the binding result in test [1] is “binds”. For the same molecule, in test [2], the Kd stood at 0.514 nM, the koff stood at 0.000149 s⁻¹ and the kon stood at 290000 M⁻¹ s⁻¹.

B2: lipocalin mutein of SEQ ID NO: 23 (designed binder)
chain: QDSTSDLIPAPPLSKVPLQQNFQDNQFQGKWYVVGVAGNAILRPDKQPAKMFATIYELKEDKSYDVTSVRFEAKSCKYTIKTFVPGSQPGEFTSGQIKSAPGQTSTLVRVVSTNYNQHAMVFFKHVSQNREIFVITLYGRTKELTSELKENFIRFSKSLGLPENHIVFPVPIDQCIDG
notes: also called hNGAL mutein
As to B2, the Kd in test [2] was 0.077 nM. The koff in test [2] came to 9.42e-06 s⁻¹. In addition, the kon in test [2] stood at 122000 M⁻¹ s⁻¹. The binding result in test [3] is “no binding (tested: dilutions starting at 1000 nM)”; in test [4], “no binding (tested: dilutions starting at 1000 nM)”; in test [5], “no binding (tested: dilutions starting at 1000 nM)”; in test [6], “no binding (tested: dilutions starting at 1000 nM)”; in test [7], “no binding (tested: dilutions starting at 1000 nM)”; in test [8] it was “binds”.

As a reminder, the Kd is a measure of binding affinity in units of concentration. As a reminder, the koff is the first-order rate constant of dissociation. For orientation: kon means a measure of how fast the partners come together.

The values are drawn from patent publication US20240228562A1 (Pieris, published 2024).
